Target: 3xFLAG-FL-NOPCHAP1 (human) (UniProt Q8N5I9)
Assay: co-IP

RL-NOP56-WT, sequence (O00567 whole entry): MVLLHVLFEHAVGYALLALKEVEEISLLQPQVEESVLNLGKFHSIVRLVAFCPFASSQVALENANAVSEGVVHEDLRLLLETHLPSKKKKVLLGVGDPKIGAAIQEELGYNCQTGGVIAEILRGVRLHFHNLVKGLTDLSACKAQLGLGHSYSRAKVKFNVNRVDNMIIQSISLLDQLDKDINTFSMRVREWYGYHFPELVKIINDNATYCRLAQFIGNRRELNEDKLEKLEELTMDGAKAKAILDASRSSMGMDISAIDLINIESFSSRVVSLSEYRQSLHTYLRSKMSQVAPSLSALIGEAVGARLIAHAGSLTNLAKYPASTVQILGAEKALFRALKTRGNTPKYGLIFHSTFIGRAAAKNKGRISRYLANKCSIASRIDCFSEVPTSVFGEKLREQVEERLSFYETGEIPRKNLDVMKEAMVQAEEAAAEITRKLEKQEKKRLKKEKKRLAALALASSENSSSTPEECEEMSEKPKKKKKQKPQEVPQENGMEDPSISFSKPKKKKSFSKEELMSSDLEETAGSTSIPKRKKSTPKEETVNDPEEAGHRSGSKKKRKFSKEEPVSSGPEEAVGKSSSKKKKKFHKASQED
3xFLAG-FL-NOPCHAP1 (human), sequence (Q8N5I9 whole entry): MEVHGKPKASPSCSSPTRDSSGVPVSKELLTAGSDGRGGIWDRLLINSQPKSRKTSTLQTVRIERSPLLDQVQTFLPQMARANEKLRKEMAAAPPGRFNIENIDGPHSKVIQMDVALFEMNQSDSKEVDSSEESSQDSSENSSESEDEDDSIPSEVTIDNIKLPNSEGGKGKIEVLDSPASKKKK

With “RL-NOP56-WT (from UniProt O00567 1-594) (natural protein)” the co-IP efficiency was < 0.05%.

From article PMC7826282
